The text below walks through data of patent US10471162B2, “Collagen targeted imaging probes” (priority 2014, dated 2019).

For data set [1] the following is noted: rat, in vivo. Here is the method:
The pharmacokinetics and metabolic stability of the probes were evaluated in Adult male Wistar rats. The right femoral vein was cannulated for intravenous delivery of the PET agent and the right femoral artery was cannulated for blood sampling. Each animal was injected with approximately 50-70 μCi of ^64Cu-CBP(n) diluted in 0.2-0.3 mL with an 18 mM solution of sucrose in water, followed by saline flush. After probe injection, several blood draws were collected at 0, 2, 5, 10, 15, 30, 60 and 120 minutes post injection into ethylenediaminetetraacetic acid (EDTA) blood tubes. Blood was weighed, and radioactivity in the blood was measured on a gamma counter to assess clearance of total ^64Cu. The serum was isolated by centrifugation of the blood (10 minutes, 4950 rpm) and proteins were precipitated with a mixture of cold methanol/acetonitrile (1/1). Solids were removed by centrifugation and the supernatant was injected onto an analytic HPLC column. The eluent was collected every 30 seconds, and the activity of each fraction was measured using a gamma counter. The result was compared with standards of pure probe and probe immediately isolated from plasma (t=0 sample).

Another data set concerns the target T1, rat tail collagen (Rattus norvegicus, UniProt P02454+P02466).
T1 construct: from tissue; host or cells: rat tail
Kind of data set: rat tail collagen-binding assay. The following applies: 2 hours at room temperature, single binding site model. As to the method:
Binding isotherms were obtained by following a method previously reported. (Caravan, P., Das, B., Dumas, S., Epstein, F. H., Helm, P. A., Jacques, V., Koerner, S., Kolodziej, A., Shen, L., Sun, W., Zhang, Z., Angewandte Chemie, 2007, 119(43), 8319-8321.) Briefly, increasing concentrations of a mixture of ^63/65Cu-CBP(n) and ^64Cu-CBP(n) were added to collagen containing wells. […] An aliquot of each solution was reserved as a measure of the total concentration. The plates were incubated on a shaker table (300 rpm) for 2 hours at room temperature to allow the compound to bind. After 2 hours, the supernatant from each well (with or without collagen) was assayed for ^64Cu content. The relative amount of free, unbound compound in the sample supernatants and the amount of compound in the reserved (total) sample were determined by using a gamma counter. The bound concentration is [Total]−[Free]. The concentration of ^63/65Cu-CBP(n) was less than the collagen concentration and the data were fit to a model of a single binding site with dissociation constant, Kd.

Data set [2] concerns pulmonary fibrosis, C57/BL6 mice (bleomycin or sham). The data set can be described thus: in vivo. To be noted: in vivo, iv. Type of data set: in vivo, mouse. Here is the method:
(§1) Pulmonary fibrosis was induced in 7-8-week-old male C57/BL6 mice by transtracheal administration of bleomycin (BM; 2.5 U/kg) in 50 μL of PBS under direct vision using a small cervical incision. Sham animals received only PBS. Animals were placed in a small-animal PET/SPECT/CT scanner (Triumph; TriFoil Imaging), equipped with inhalation anesthesia and heating pad. Each animal was anesthetized with isoflurane (4% for induction, 2-2.5% for maintenance in medical air) and body temperature was kept at 37-38° C. using a heating pad. The femoral vein was cannulated for intravenous delivery of the PET agent. Each mouse was injected with approximately 0.1 mL and 20-50 μCi of ^64Cu-CBP(n), 0.1 mL and 20-50 μCi of ^68Ga-CBP(n) and 0.1 mL and 10-20 μCi of Al^18F-CBP(n) in a 18 mM solution of sucrose in water, followed by saline flush. […] The lungs, blood, urine, heart, liver, left rectus femoris muscle, spleen, small intestine, kidneys, left femur bone were collected from all animals. The tissues were weighed, and radioactivity in each tissue was measured on a gamma counter (CobraII Auto gamma; Packard). The radioactivity in the lung was reported as percent injected dose per gram corrected with the average sham weight, which was calculated by dividing the counts of ^64Cu per average sham tissue weight in gram by the total of counts of the injected dose. The radioactivity in every other tissue was reported as percent injected dose per gram (% ID/g), which was calculated by dividing the counts of ^64Cu per gram of tissue by the total of counts of the injected dose. A p-value of less than 0.05 was considered significant. Uncertainties are expressed as the standard error of the mean.

Another data set is described as follows: in vivo. Type of data set: in vivo, mouse. The following applies: male, C57/BL6, mouse, in vivo, iv, total radioactivity, Biodistribution % ID/g, sm. intestine. Here is the method:
as §1

Data set [3] relates to pulmonary fibrosis, C57/BL6 mice (bleomycin or sham). To be noted: mouse, in vivo. As to the method:
Pulmonary fibrosis was induced in 7-8-week-old male C57/BL6 mice by transtracheal administration of bleomycin (BM; 2.5 U/kg) in 50 μL of PBS under direct vision using a small cervical incision. Sham animals received only PBS. Animals were placed in a small-animal PET/SPECT/CT scanner (Triumph; TriFoil Imaging), equipped with inhalation anesthesia and heating pad. Each animal was anesthetized with isoflurane (4% for induction, 1-1.5% for maintenance in medical air). After placement of an in-dwelling catheter in the femoral vein for probe administration, mice were positioned in the PET-CT and the probe was given as a bolus as the PET acquisition began. Mice were imaged continuously by PET for 120 minutes. […] Instrument calibration was performed with phantoms containing small known amounts of radioactivity. […] Reconstructed PET/CT data were quantitatively evaluated using AMIDE software package (Loening and Gambhir, 2003). […] The radioactivity concentration within organs was obtained from mean pixel values within the VOI volume and converted to counts per milliliter per minute and then divided by the injected dose (ID) to obtain an imaging VOI-derived percentage of the injected radioactive dose per cubic centimeter of tissue (% ID/cc). […] Instrument calibration was performed with phantoms containing small known amount of radioactivity. […]

The structures appear in SMILES notation.

T1 sequence (P02454 152-1207 limits assumed): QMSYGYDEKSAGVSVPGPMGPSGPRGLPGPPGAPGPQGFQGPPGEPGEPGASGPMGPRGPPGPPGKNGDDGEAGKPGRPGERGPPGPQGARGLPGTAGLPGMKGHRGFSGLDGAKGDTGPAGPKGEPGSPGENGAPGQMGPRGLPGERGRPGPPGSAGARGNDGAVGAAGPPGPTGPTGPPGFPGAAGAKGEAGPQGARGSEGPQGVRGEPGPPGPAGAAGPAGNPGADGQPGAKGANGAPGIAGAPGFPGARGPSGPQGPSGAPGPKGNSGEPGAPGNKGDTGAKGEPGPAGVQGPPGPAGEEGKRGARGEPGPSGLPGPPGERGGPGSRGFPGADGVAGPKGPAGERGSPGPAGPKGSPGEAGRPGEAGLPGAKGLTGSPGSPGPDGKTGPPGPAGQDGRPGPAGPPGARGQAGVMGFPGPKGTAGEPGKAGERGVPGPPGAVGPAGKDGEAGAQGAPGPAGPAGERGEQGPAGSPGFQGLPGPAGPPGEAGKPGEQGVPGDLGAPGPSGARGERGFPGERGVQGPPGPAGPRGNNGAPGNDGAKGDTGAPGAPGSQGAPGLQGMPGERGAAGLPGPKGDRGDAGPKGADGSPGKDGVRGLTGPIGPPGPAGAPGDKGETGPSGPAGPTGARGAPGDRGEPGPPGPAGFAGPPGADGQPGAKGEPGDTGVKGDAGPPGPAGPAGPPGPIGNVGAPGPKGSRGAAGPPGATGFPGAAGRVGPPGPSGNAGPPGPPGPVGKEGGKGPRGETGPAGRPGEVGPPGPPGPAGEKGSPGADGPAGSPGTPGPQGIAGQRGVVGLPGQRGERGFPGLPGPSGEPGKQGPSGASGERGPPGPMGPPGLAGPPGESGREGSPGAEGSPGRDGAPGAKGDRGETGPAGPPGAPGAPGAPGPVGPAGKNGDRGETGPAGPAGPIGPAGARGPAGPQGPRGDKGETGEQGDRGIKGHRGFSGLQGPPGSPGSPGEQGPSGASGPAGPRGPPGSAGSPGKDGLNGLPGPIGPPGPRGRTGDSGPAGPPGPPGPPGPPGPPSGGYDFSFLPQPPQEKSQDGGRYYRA
T1 sequence (P02466 86-1125 limits assumed): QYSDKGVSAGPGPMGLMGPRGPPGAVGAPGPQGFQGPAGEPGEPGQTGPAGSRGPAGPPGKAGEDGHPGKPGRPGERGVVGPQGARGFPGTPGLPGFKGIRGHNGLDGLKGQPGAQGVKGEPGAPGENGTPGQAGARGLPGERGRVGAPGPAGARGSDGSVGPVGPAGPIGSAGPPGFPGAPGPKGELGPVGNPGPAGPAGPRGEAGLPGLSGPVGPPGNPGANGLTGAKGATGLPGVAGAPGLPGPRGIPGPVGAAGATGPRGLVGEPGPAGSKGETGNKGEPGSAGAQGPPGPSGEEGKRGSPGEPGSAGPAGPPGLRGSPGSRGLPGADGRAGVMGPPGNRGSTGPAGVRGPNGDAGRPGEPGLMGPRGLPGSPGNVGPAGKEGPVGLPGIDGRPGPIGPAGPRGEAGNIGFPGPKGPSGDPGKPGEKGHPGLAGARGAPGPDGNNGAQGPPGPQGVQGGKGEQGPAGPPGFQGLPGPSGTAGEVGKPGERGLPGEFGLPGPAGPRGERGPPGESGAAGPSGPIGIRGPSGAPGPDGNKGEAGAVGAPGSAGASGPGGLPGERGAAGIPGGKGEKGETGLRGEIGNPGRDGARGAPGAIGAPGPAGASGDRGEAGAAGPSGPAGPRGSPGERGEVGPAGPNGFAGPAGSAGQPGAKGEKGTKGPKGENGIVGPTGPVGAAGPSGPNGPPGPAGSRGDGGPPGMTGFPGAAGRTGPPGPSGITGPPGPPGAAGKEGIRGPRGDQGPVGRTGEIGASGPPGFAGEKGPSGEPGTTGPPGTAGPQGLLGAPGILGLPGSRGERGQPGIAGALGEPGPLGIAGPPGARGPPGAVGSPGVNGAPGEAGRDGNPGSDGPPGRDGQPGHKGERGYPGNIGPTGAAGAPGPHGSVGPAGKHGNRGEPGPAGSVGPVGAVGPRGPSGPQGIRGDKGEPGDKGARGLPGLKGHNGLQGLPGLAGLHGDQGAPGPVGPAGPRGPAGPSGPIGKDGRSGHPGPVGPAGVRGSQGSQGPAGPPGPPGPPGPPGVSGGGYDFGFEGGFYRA

The Kd is the free concentration of one partner at which half of the binding sites on the other are occupied at equilibrium, for simple one-to-one binding. Broadly, the tissue uptake is the percentage of the injected dose found per gram of tissue. On to `CC(C)C[C@H](NC(=O)[C@@H]1CSSC[C@H](NC(=O)[C@H](Cc2c[nH]cn2)NC(=O)[C@H](Cc2c[nH]c3ccccc23)NC(=O)[C@H](CCCCNC(=O)CNC(=O)CCC(C(=O)O)N2CCN(CC(=O)O)CCN(CC(=O)O)CC2)NC(=O)CNC(=O)CCC(C(=O)O)N2CCN(CC(=O)O)CCN(CC(=O)O)CC2)C(=O)N[C@@H]([C@@H](C)O)C(=O)N[C@@H]([C@@H](C)O)C(=O)N[C@@H](CCCCNC(=O)CCC(C(=O)O)N2CCN(CC(=O)O)CCN(CC(=O)O)CC2)C(=O)N[C@@H](Cc2ccccc2)C(=O)N2CCC[C@H]2C(=O)N[C@@H](Cc2c[nH]cn2)C(=O)N[C@@H](Cc2c[nH]cn2)C(=O)N[C@@H](Cc2ccc(O)cc2)C(=O)N1)C(=O)N[C@@H](Cc1ccc(O)cc1)C(=O)N[C@@H](Cc1ccc(-c2ccccc2)cc1)C(N)=O` (single isomer, unassigned) [CBP7], for which, in data set [1], the “metabolic stability compared with CBP(n) probes with a single NODAGA chelator” value is “more metabolically stable”. Besides, binding on rat tail collagen was characterised by a dissociation constant (Kd) of 2400 ± 1500 nM. For the same molecule, in data set [2] (male, C57/BL6, mouse, 2 h), the “Biodistribution % ID/g, sm. intestine” value is listed as 0.877 ± 0.077 % ID/g. The route of excretion entry in data set [2] (mouse) is “excreted mainly through the kidneys”. Also, the tissue uptake at 2 h in the data set “in vivo” was 0.853 ± 0.246 %ID/g. For the same molecule, the “Mean PET activity in heart and muscle, BM-treated vs sham, in words” value in data set [3] was “not significantly different”.
